The text below walks through data of patent publication US20140087995A1 (published 2014).

Numbered stars: 1 amine (or outer) side, 2 acyl side, 3 side chain; on linkers, the order of the positions; unused ones are H or OH. Bridge positions count the residues as written; N and C are the ends. Side chains are listed from the residue outwards. Ends that are not written are not given here. * marks the point of attachment. C20 diacid = O=C(O)CCCCCCCCCCCCCCCCCCC(=O)*; γGlu = O=C(O)[C@H](CCC(=O)[*:2])N[*:1]; AEEA = NCCOCCOCC(=O)O

The target in test [1] is T1, rat calcitonin receptor (rat, UniProt P32214 25-516).
T1 construct: whole, on cells; Used as membranes prepared from the transfected cells; also called rCTR; rCT
T1 sequence (looked up): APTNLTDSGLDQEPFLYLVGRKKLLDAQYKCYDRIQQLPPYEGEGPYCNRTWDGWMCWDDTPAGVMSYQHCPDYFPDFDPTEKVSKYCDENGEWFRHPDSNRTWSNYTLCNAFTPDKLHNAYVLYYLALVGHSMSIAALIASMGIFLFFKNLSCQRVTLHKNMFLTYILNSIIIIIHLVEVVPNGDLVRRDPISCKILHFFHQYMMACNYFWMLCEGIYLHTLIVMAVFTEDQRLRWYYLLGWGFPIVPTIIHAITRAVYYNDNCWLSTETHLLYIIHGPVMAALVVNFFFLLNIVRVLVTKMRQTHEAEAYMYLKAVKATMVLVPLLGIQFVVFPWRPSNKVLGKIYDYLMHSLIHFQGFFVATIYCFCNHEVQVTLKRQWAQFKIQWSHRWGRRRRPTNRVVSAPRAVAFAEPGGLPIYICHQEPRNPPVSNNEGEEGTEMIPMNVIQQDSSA
In words: ratio of binding IC50 at rat calcitonin receptor to IC50 at rat amylin receptor (reference).

Test [2] deals with T1, rat calcitonin receptor. In words: SPA competition with 125I-calcitonin, membranes with rat calcitonin receptor (Assay VIII).
Test [3] addresses T2, human calcitonin receptor (human, UniProt P30988 25-474).
T2 construct: whole, on cells; Used as membranes prepared from the transfected cells; also called hCTR; hCT
T2 sequence (looked up): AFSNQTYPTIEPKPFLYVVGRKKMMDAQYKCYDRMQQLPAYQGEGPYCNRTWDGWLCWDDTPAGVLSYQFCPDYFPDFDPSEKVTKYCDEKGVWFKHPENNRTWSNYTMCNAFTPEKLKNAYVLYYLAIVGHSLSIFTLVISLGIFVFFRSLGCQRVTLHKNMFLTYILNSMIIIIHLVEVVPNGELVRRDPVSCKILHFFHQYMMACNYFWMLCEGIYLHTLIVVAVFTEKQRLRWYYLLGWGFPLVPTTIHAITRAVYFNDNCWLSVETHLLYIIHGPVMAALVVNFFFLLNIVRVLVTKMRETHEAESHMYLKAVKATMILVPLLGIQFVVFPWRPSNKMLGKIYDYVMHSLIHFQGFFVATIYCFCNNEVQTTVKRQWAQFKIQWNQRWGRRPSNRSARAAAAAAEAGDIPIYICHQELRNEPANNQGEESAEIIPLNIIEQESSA
In words: ratio of binding IC50 at human calcitonin receptor to IC50 at human amylin receptor (reference). As for the experimental part: The resulting pellet was resuspended, homogenized and centrifuged (20.000 rpm, 15 min) in a buffer containing 20 mM Na-HEPES and 0.1 mM EDTA (pH 7.4, buffer 2). The resulting pellet was resuspended in buffer 2 and protein concentration was measured (BCA protein Assay, Pierce). The homogenate was kept cold during the whole procedure. The membranes were kept at −80° C. until use. The assay was performed in a 384 well Optiplate (PerkinElmer) in a total volume of 40 ul. Membranes were mixed with SPA beads. Final concentration of membranes 35 ng/μL final and SPA beads was 0.05 mg/well. Test-compounds were dissolved in DMSO and further diluted in assay buffer (50 mM Hepes, pH 7.4, 1 mM CaCl2, 5 mM MgCl₂, 0.1% OA and 0.02% Tween20). […] The final mixture was incubated with shaking at 400 rpm for 120 min at 25° C. prior to centrifugation (1500 rpm, 10 min). Samples were analyzed on TopCounter™ (Packard). The IC₅₀ was calculated using (one site binding competition analysis) GraphPad Prism5 as a measure of receptor affinity.
Membranes were prepared in the following way; the cells were rinsed with PBS and incubated with Versene for approximately 5 min before harvesting. The cells were flushed with PBS and the cell-suspension was centrifuged for 5 min at 1000 rpm. Cells were homogenized (Ultrathurrax) in a buffer containing 20 mM Na-HEPES and 10 mM EDTA (pH 7.4) and centrifuged at 20.000 rpm for 15 min. The resulting pellet was resuspended, homogenized and centrifuged (20.000 rpm, 15 min) in a buffer containing 20 mM Na-HEPES and 0.1 mM EDTA (pH 7.4, buffer 2). The resulting pellet was resuspended in buffer 2 and protein concentration was measured (BCA protein Assay, Pierce). The homogenate was kept cold during the whole procedure. The membranes were kept at −80° C. until use. Assay was performed in a 384 well Optiplate (PerkinElmer) in a total volume of 40 ul. Membranes were mixed with SPA beads.

B1: N^ε1-[2-[2-[2-[[(4S)-4-carboxy-4-(19-carboxynonadecanoylamino)butanoyl]amino]ethoxy]ethoxy]acetyl]-[His14,Arg17,Pro21,Pro27,Arg34]-h-amylin (peptide)
peptide: K([AEEA-γGlu-C20 diacid])CNTATCATQRLAHFLRHSSPNFGAIPSSTNVGRNTY-NH2
modifications: disulfide 2-7; N-terminus assumed
SMILES: CC[C@H](C)[C@H](NC(=O)[C@H](C)NC(=O)CNC(=O)[C@H](Cc1ccccc1)NC(=O)[C@H](CC(N)=O)NC(=O)[C@@H]1CCCN1C(=O)[C@H](CO)NC(=O)[C@H](CO)NC(=O)[C@H](Cc1c[nH]cn1)NC(=O)[C@H](CCCNC(=N)N)NC(=O)[C@H](CC(C)C)NC(=O)[C@H](Cc1ccccc1)NC(=O)[C@H](Cc1c[nH]cn1)NC(=O)[C@H](C)NC(=O)[C@H](CC(C)C)NC(=O)[C@H](CCCNC(=N)N)NC(=O)[C@H](CCC(N)=O)NC(=O)[C@@H](NC(=O)[C@H](C)NC(=O)[C@@H]1CSSC[C@H](NC(=O)[C@@H](N)CCCCNC(=O)COCCOCCNC(=O)CC[C@H](NC(=O)CCCCCCCCCCCCCCCCCCC(=O)O)C(=O)O)C(=O)N[C@@H](CC(N)=O)C(=O)N[C@@H]([C@@H](C)O)C(=O)N[C@@H](C)C(=O)N[C@@H]([C@@H](C)O)C(=O)N1)[C@@H](C)O)C(=O)N1CCC[C@H]1C(=O)N[C@@H](CO)C(=O)N[C@@H](CO)C(=O)N[C@H](C(=O)N[C@@H](CC(N)=O)C(=O)N[C@H](C(=O)NCC(=O)N[C@@H](CCCNC(=N)N)C(=O)N[C@@H](CC(N)=O)C(=O)N[C@H](C(=O)N[C@@H](Cc1ccc(O)cc1)C(N)=O)[C@@H](C)O)C(C)C)[C@@H](C)O
notes: Analogue of human amylin; disulfide and C-terminal amide as told for h-amylin; also called compound 84
On to B1, for which the “Ratio rCT/rAmylin binding” value with rat calcitonin receptor [1] worked out at 94.3. Also, in the test with rat calcitonin receptor [2], the IC50 turned out to be 477 nM. In test [3], the “Ratio hCT/hAmylin binding” value was 120.

B2: N^ε1-[2-[2-[2-[[(4S)-4-carboxy-4-(19-carboxynonadecanoylamino)butanoyl]amino]ethoxy]ethoxy]acetyl]-[His14,Arg17,Pro21,Pro27,His34]-h-amylin (peptide)
peptide: K([AEEA-γGlu-C20 diacid])CNTATCATQRLAHFLRHSSPNFGAIPSSTNVGHNTY-NH2
modifications: disulfide 2-7; N-terminus assumed
SMILES: CC[C@H](C)[C@H](NC(=O)[C@H](C)NC(=O)CNC(=O)[C@H](Cc1ccccc1)NC(=O)[C@H](CC(N)=O)NC(=O)[C@@H]1CCCN1C(=O)[C@H](CO)NC(=O)[C@H](CO)NC(=O)[C@H](Cc1c[nH]cn1)NC(=O)[C@H](CCCNC(=N)N)NC(=O)[C@H](CC(C)C)NC(=O)[C@H](Cc1ccccc1)NC(=O)[C@H](Cc1c[nH]cn1)NC(=O)[C@H](C)NC(=O)[C@H](CC(C)C)NC(=O)[C@H](CCCNC(=N)N)NC(=O)[C@H](CCC(N)=O)NC(=O)[C@@H](NC(=O)[C@H](C)NC(=O)[C@@H]1CSSC[C@H](NC(=O)[C@@H](N)CCCCNC(=O)COCCOCCNC(=O)CC[C@H](NC(=O)CCCCCCCCCCCCCCCCCCC(=O)O)C(=O)O)C(=O)N[C@@H](CC(N)=O)C(=O)N[C@@H]([C@@H](C)O)C(=O)N[C@@H](C)C(=O)N[C@@H]([C@@H](C)O)C(=O)N1)[C@@H](C)O)C(=O)N1CCC[C@H]1C(=O)N[C@@H](CO)C(=O)N[C@@H](CO)C(=O)N[C@H](C(=O)N[C@@H](CC(N)=O)C(=O)N[C@H](C(=O)NCC(=O)N[C@@H](Cc1c[nH]cn1)C(=O)N[C@@H](CC(N)=O)C(=O)N[C@H](C(=O)N[C@@H](Cc1ccc(O)cc1)C(N)=O)[C@@H](C)O)C(C)C)[C@@H](C)O
notes: Analogue of human amylin; disulfide and C-terminal amide as told for h-amylin; also called compound 80
On to B2, for which the “Ratio rCT/rAmylin binding” value with rat calcitonin receptor [1] was found to be 36.2. The IC50 in the test with rat calcitonin receptor [2] stood at 60.4 nM. In test [3], the “Ratio hCT/hAmylin binding” value was found to be 68.1.

B3: N^ε1-[2-[2-[2-[[(4S)-4-carboxy-4-(19-carboxynonadecanoylamino)butanoyl]amino]ethoxy]ethoxy]acetyl]-[His14,Arg17,Pro21,Pro27,Pro34]-h-amylin (peptide)
peptide: K([AEEA-γGlu-C20 diacid])CNTATCATQRLAHFLRHSSPNFGAIPSSTNVGPNTY-NH2
modifications: disulfide 2-7; N-terminus assumed
SMILES: CC[C@H](C)[C@H](NC(=O)[C@H](C)NC(=O)CNC(=O)[C@H](Cc1ccccc1)NC(=O)[C@H](CC(N)=O)NC(=O)[C@@H]1CCCN1C(=O)[C@H](CO)NC(=O)[C@H](CO)NC(=O)[C@H](Cc1c[nH]cn1)NC(=O)[C@H](CCCNC(=N)N)NC(=O)[C@H](CC(C)C)NC(=O)[C@H](Cc1ccccc1)NC(=O)[C@H](Cc1c[nH]cn1)NC(=O)[C@H](C)NC(=O)[C@H](CC(C)C)NC(=O)[C@H](CCCNC(=N)N)NC(=O)[C@H](CCC(N)=O)NC(=O)[C@@H](NC(=O)[C@H](C)NC(=O)[C@@H]1CSSC[C@H](NC(=O)[C@@H](N)CCCCNC(=O)COCCOCCNC(=O)CC[C@H](NC(=O)CCCCCCCCCCCCCCCCCCC(=O)O)C(=O)O)C(=O)N[C@@H](CC(N)=O)C(=O)N[C@@H]([C@@H](C)O)C(=O)N[C@@H](C)C(=O)N[C@@H]([C@@H](C)O)C(=O)N1)[C@@H](C)O)C(=O)N1CCC[C@H]1C(=O)N[C@@H](CO)C(=O)N[C@@H](CO)C(=O)N[C@H](C(=O)N[C@@H](CC(N)=O)C(=O)N[C@H](C(=O)NCC(=O)N1CCC[C@H]1C(=O)N[C@@H](CC(N)=O)C(=O)N[C@H](C(=O)N[C@@H](Cc1ccc(O)cc1)C(N)=O)[C@@H](C)O)C(C)C)[C@@H](C)O
notes: Analogue of human amylin; disulfide and C-terminal amide as told for h-amylin; also called compound 68
With B3, the “Ratio rCT/rAmylin binding” value with rat calcitonin receptor [1] was 122. In addition, the IC50 with rat calcitonin receptor [2] stood at 28.5 nM. Besides, the “Ratio hCT/hAmylin binding” value in test [3] stood at 64.4.

B4: N^ε1-[2-[2-[2-[[(4S)-4-carboxy-4-(19-carboxynonadecanoylamino)butanoyl]amino]ethoxy]ethoxy]acetyl]-[Lys14,Arg17,Pro21,Pro27,Pro31]-h-amylin (peptide)
peptide: K([AEEA-γGlu-C20 diacid])CNTATCATQRLAKFLRHSSPNFGAIPSSTPVGSNTY-NH2
modifications: disulfide 2-7; N-terminus assumed
SMILES: CC[C@H](C)[C@H](NC(=O)[C@H](C)NC(=O)CNC(=O)[C@H](Cc1ccccc1)NC(=O)[C@H](CC(N)=O)NC(=O)[C@@H]1CCCN1C(=O)[C@H](CO)NC(=O)[C@H](CO)NC(=O)[C@H](Cc1c[nH]cn1)NC(=O)[C@H](CCCNC(=N)N)NC(=O)[C@H](CC(C)C)NC(=O)[C@H](Cc1ccccc1)NC(=O)[C@H](CCCCN)NC(=O)[C@H](C)NC(=O)[C@H](CC(C)C)NC(=O)[C@H](CCCNC(=N)N)NC(=O)[C@H](CCC(N)=O)NC(=O)[C@@H](NC(=O)[C@H](C)NC(=O)[C@@H]1CSSC[C@H](NC(=O)[C@@H](N)CCCCNC(=O)COCCOCCNC(=O)CC[C@H](NC(=O)CCCCCCCCCCCCCCCCCCC(=O)O)C(=O)O)C(=O)N[C@@H](CC(N)=O)C(=O)N[C@@H]([C@@H](C)O)C(=O)N[C@@H](C)C(=O)N[C@@H]([C@@H](C)O)C(=O)N1)[C@@H](C)O)C(=O)N1CCC[C@H]1C(=O)N[C@@H](CO)C(=O)N[C@@H](CO)C(=O)N[C@H](C(=O)N1CCC[C@H]1C(=O)N[C@H](C(=O)NCC(=O)N[C@@H](CO)C(=O)N[C@@H](CC(N)=O)C(=O)N[C@H](C(=O)N[C@@H](Cc1ccc(O)cc1)C(N)=O)[C@@H](C)O)C(C)C)[C@@H](C)O
notes: Analogue of human amylin; disulfide and C-terminal amide as told for h-amylin; Acylation site is 1K, not Lys14; also called compound 74
With B4, the “Ratio rCT/rAmylin binding” value in the test with rat calcitonin receptor [1] came to 22.3. Also, the 50% inhibitory concentration (IC50) in the test with rat calcitonin receptor [2] turned out to be 109 nM. Further, the “Ratio hCT/hAmylin binding” value in test [3] is 101.
